The target of test [1] is MGL Biot-ECD (biotinylated extracellular domain of MGL) (UniProt Q8IUN9). Put plainly: SPR. Background: Surface plasmon resonance follows binding to a sensor surface in real time, without labels.
The target in test [2] is DC-SIGN Biot-ECD (biotinylated extracellular domain of DC-SIGN) (UniProt Q9NNX6). Put plainly: SPR.
UniProt Q9NNX6, sequence (Q9NNX6 59-404): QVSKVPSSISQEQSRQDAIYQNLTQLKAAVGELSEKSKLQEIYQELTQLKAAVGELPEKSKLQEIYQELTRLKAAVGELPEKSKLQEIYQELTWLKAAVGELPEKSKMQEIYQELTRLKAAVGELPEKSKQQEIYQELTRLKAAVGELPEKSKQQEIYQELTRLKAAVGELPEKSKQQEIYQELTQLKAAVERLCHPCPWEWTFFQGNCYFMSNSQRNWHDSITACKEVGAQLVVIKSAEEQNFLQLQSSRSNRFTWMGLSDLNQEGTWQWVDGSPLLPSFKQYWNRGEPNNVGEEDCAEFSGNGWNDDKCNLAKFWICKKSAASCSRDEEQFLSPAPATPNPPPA

UniProt Q8IUN9, sequence (Q8IUN9 61-316): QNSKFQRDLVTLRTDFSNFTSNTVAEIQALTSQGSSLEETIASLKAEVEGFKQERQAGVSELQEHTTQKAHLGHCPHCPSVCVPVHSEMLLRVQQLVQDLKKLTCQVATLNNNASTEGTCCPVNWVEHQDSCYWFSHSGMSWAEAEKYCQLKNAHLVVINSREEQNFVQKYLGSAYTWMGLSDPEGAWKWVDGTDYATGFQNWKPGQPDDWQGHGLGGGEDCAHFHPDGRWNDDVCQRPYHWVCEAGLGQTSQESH

Consider “ADD KGE RBD (ADD-KGE/RBD-SC covalent complex) (from UniProt Q2Y0H9 1-544; P0DTC2 320-554)”, for which the Kd (in general, the concentration at which binding is half-saturated) in test [1] amounted to 0.0661 µM; in test [2], 0.00034 µM.
